Several values for one entry are separate records, joined by “and”; a condition that tells them apart may be missing. Equal entries are not always repeated.
Key:
ATG 1240 = assay: Mimicry of tissue attenuation using long pass filters, transfected HEK293T cells; type: cell-based, click beetle; settings: HEK293T cells expressing ATG 1240
Protocol: A transfection complex was prepared by diluting ATG 1240 DNA or Luc2 DNA (pF4Ag-Luc2) to 100 ng/μL, and then 2× serial dilutions prepared in 50 ng/μL pGEM carrier DNA. 40 μL of the diluted DNA was the mixed with 160 μL phenol red free OptiMEM and 16 μL of FuGENE® HD and incubated for 20 min. 5 μL of each transfection complex was added to wells of a 96-well black assay plates and then 100 μL of diluted HEK293T cells (200,000/mL in DMEM+10% FBS) was added. The cells were grown overnight at 37° C. with CO2.
To assay the cells, 4 mM D-luciferin, 2 mM PBI-4813 and 2 mM PBI-4739 substrate solutions were prepared in DMEM+10% FBS. 100 μL of the D-luciferin solution was added to cells expressing Luc2 and ATG 1240, and 100 μL of PBI-4813 or PBI-4739 solution was added to ATG 1240 expressing cells. Samples were incubated for 10 min at 37° C., and luminescence detected on GloMax® Discover (heated to 37° C.) with no filter, 610 nm Long Pass (LP) filter, 665 nm LP filter, 695 nm LP filter, 720 nm LP filter or 760 nm LP filter.

[1] = Luminescence of ATG 1230 and ATG 1240 cell lysates, GloMax Discover with red-sensitive PMT; type: biochemical; settings: for Luminescence, PBI-4739 / Luminescence, PBI 4813: cell lysate; for Luminescence, PBI-4739: 20 μM PBI-4739; for Luminescence, PBI 4813: 20 μM PBI-4813, GloMax Discover red-sensitive PMT; for PBI-4813/PBI-4739: ratio of luminescence with the two substrates
Protocol: (§1) 2. Cell lysates were prepared from cells containing the variants listed in Table 3 by diluting 100 μL of induced culture with 100 μL of lysis buffer (0.3×PLB, 0.006U RQ DNAse1) using a Tecan liquid handling robot. 50 μL of each cell lysate was assayed with either PBI-4813 or PBI-4739 (20 μM in Bright-Glo™ assay buffer containing 1 mM ATP), and luminescence detected on an ImageQuant CCD imager. Luminescence of the variants was normalized to CBR luciferase (FIG. 8).
Variant clones identified as ATG 1230 (CBR+389F+444R+251S) and ATG 1240 (CBR+334S+351R) were further evaluated for their luminescence, spectral property, Km and live cell kinetics with either PBI-4813 or PBI-4739. These variants were cloned and expressed as described in Example 2 except the template was pF4Ag-CBR, i.e., no HALOTAG®.
A. Luminescence with PBI-4813 and PBI-4739. Cell lysates of these variant clones were prepared and assayed for luminescence as described in Example 6. Luminescence was detected on a GloMax® Discover equipped with a red-sensitive photomultiplier tube (PMT) and compared to CBR luciferase (Table 5 and FIG. 10).

[2] = Substrate inhibition of luciferase activity at high substrate concentration; type: biochemical; settings: PBI-4813 at concentrations greater than ten times the Km
[3] = Combinations of H-acceptor and library screen mutants, lysate luminescence; type: biochemical; settings: for Luminescence normalized to CBR luciferase, D-LH2 (luciferin): substrate D-LH2 (luciferin); for Luminescence normalized to CBR luciferase, PBI-4739: substrate PBI-4739; for Luminescence normalized to CBR luciferase, PBI-4813: substrate PBI-4813
Protocol: as §1
Combinations of the Hydrogen acceptor mutants identified in Example 6 were designed and prepared using the QuikChange Multi Site-Directed Mutagenesis Kit (Agilent). Variants were cloned and expressed as described in Example 2 except the template was pF4Ag-CBR. Variants were screened as described in Example 6. Luminescence of the variants using luciferin (“D-LH2”), PBI-4813, and PBI-4739 was normalized to CBR luciferase (Table 4 and FIG. 9).

[4] = Recombination of ATG 1240 library mutants, lysate luminescence; type: biochemical
Source text: 2. […] Luminescence of the variants was normalized to CBR luciferase (FIG. 8). Combinations of the ATG 1240 library mutants identified in Example 9 were designed and prepared using DNA shuffling ([…] USA 91:10747-10751). Briefly, a library of mutant genes was created via DNA shuffling. The mutant genes were then cloned into the pF4Ag vector and screened as described in Example 6. Luminescence was detected on a GloMax® Discover Multimode Detection System and normalized to ATG-1240 luciferase (Table 8 and FIG. 15).

[5] = listed as 251S + 389F + 444R (343 template)

For `O=C(O)[C@H]1CSC(c2nc3ccc(O)cc3s2)=N1` [D-luciferin, D-(−)-2-(6′-hydroxy-2′-benzoth-iazolyl)-Δ^2-thiazolin-4-carboxylic acid], the “luminescence of ATG 1240 when light is attenuated with long pass filters” value (ATG 1240; 37° C.) was “may be brighter than with PBI-4739” and the “luminescence of ATG 1240 at the greatest light attenuation” value (ATG 1240; long pass filters) was “comparable”.

B1: CBR: click beetle red luciferase polypeptide of SEQ ID NO: 1 (protein)
chain: MVKREKNVIYGPEPLHPLEDLTAGEMLFRALRKHSHLPQALVDVVGDESLSYKEFFEATVLLAQSLHNCGYKMNDVVSICAENNTRFFIPVIAAWYIGMIVAPVNESYIPDELCKVMGISKPQIVFTTKNILNKVLEVQSRTNFIKRIIILDTVENIHGCESLPNFISRYSDGNIANFKPLHFDPVEQVAAILCSSGTTGLPKGVMQTHQNICVRLIHALDPRYGTQLIPGVTVLVYLPFFHAFGFHITLGYFMVGLRVIMFRRFDQEAFLKAIQDYEVRSVINVPSVILFLSKSPLVDKYDLSSLRELCCGAAPLAKEVAEVAAKRLNLPGIRCGFGLTESTSAIIQTLGDEFKSGSLGRVTPLMAAKIADRETGKALGPNQVGELCIKGPMVSKGYVNNVEATKEAIDDDGWLHSGDFGYYDEDEHFYVVDRYKELIKYKGSQVAPAELEEILLKNPCIRDVAVVGIPDLEAGELPSAFVVKQPGTEITAKEVYDYLAERVSHTKYLRGGVRFVDSIPRNVTGKITRKELLKQLLVKAGGV
With B1 the “Luminescence, PBI-4739” value [1] was 17,431, the “Luminescence, PBI 4813” value [1] was 98,556 and the PBI-4813/PBI-4739 [1] was 5.7. For the same molecule, the “inhibition of luciferase activity by PBI-4813” value [2] was “inhibits the activity”, the “Luminescence normalized to CBR luciferase, D-LH2 (luciferin)” value [3] was 1.0 and the “Luminescence normalized to CBR luciferase, PBI-4739” value [3] was 1.0. For the same molecule, the “Luminescence normalized to CBR luciferase, PBI-4813” value [3] was 1.0.

B2: ATG 1230: CBR variant I389F, S444R, G251S (SEQ ID NO: 3) (protein)
chain: MVKREKNVIYGPEPLHPLEDLTAGEMLFRALRKHSHLPQALVDVVGDESLSYKEFFEATVLLAQSLHNCGYKMNDVVSICAENNTRFFIPVIAAWYIGMIVAPVNESYIPDELCKVMGISKPQIVFTTKNILNKVLEVQSRTNFIKRIIILDTVENIHGCESLPNFISRYSDGNIANFKPLHFDPVEQVAAILCSSGTTGLPKGVMQTHQNICVRLIHALDPRYGTQLIPGVTVLVYLPFFHAFGFHITLSYFMVGLRVIMFRRFDQEAFLKAIQDYEVRSVINVPSVILFLSKSPLVDKYDLSSLRELCCGAAPLAKEVAEVAAKRLNLPGIRCGFGLTESTSAIIQTLGDEFKSGSLGRVTPLMAAKIADRETGKALGPNQVGELCFKGPMVSKGYVNNVEATKEAIDDDGWLHSGDFGYYDEDEHFYVVDRYKELIKYKGRQVAPAELEEILLKNPCIRDVAVVGIPDLEAGELPSAFVVKQPGTEITAKEVYDYLAERVSHTKYLRGGVRFVDSIPRNVTGKITRKELLKQLLVKAGGV
With B2 the “Luminescence, PBI-4739” value [1] was 26,595, the “Luminescence, PBI 4813” value [1] was 310,342 and the PBI-4813/PBI-4739 [1] was 11.7. The “inhibition of luciferase activity by PBI-4813” value [2] was “inhibits the activity”, the “Luminescence normalized to CBR luciferase, D-LH2 (luciferin)” value [3, 5] was 0.6 and 0.5 and the “Luminescence normalized to CBR luciferase, PBI-4739” value [3, 5] was 1.6 and 1.4. For the same molecule, the “Luminescence normalized to CBR luciferase, PBI-4813” value [3, 5] was 3.4 and 3.2.

B3: 5G5: ATG 1240 variant S51N + S444R (SEQ ID NO: 4) (protein)
chain: MVKREKNVIYGPEPLHPLEDLTAGEMLFRALRKHSHLPQALVDVVGDESLNYKEFFEATVLLAQSLHNCGYKMNDVVSICAENNTRFFIPVIAAWYIGMIVAPVNESYIPDELCKVMGISKPQIVFTTKNILNKVLEVQSRTNFIKRIIILDTVENIHGCESLPNFISRYSDGNIANFKPLHFDPVEQVAAILCSSGTTGLPKGVMQTHQNICVRLIHALDPRYGTQLIPGVTVLVYLPFFHAFGFHITLGYFMVGLRVIMFRRFDQEAFLKAIQDYEVRSVINVPSVILFLSKSPLVDKYDLSSLRELCCGAAPLAKEVAEVAAKRLNLPGISCGFGLTESTSAIIQTLRDEFKSGSLGRVTPLMAAKIADRETGKALGPNQVGELCIKGPMVSKGYVNNVEATKEAIDDDGWLHSGDFGYYDEDEHFYVVDRYKELIKYKGRQVAPAELEEILLKNPCIRDVAVVGIPDLEAGELPSAFVVKQPGTEITAKEVYDYLAERVSHTKYLRGGVRFVDSIPRNVTGKITRKELLKQLLVKAGGV
With B3 the “Luminescence normalized to ATG-1240 luciferase, D-LH2” value ([4]; substrate D-LH2) was 2.8, the “Luminescence normalized to ATG-1240 luciferase, PBI-4739” value ([4]; substrate PBI-4739) was 3.8 and the “Luminescence normalized to ATG-1240 luciferase, PBI-4813” value ([4]; substrate PBI-4813) was 4.0.
